Laboratory results reported in patent US20210054076A1 (Chugai, published 2021).
Substitutions are numbered along the chain they refer to.

B1: CH03/CD3 (bispecific antibody, human IgG1, kappa, N297A)
heavy 1: EVQVEQSGPELVKPGASVKISCKTSGYTFTEYTMHWVKQSHGKSLEWIGGINPNNGNTRYNQKFKGKATLTVDKSSSTAYMELRTLTSEDSAVYYCARCGDFDLFFFFAYWGQGTLVTVSAASTKGPSVFPLAPSSKSTSGGTAALGCLVKDYFPEPVTVSWNSGALTSGVHTFPAVLQSSGLYSLSSVVTVPSSSLGTQTYICNVNHKPSNTKVDKKVEPKSCDKTHTCPPCPAPELRGGPKVFLFPPKPKDTLMISRTPEVTCVVVDVSHEDPEVKFNWYVDGVEVHNAKTKPREEQYASTYRVVSVLTVLHQDWLNGKEYKCKVSNKALPAPIEKTISKAKGQPREPQVYTLPPSREEMTKNQVSLTCLVKGFYPSDIAVEWESNGQPENNYKTTPPYLDSDGSFFLYSKLTVDKSRWQQGNVFSCSVMHEALHNHYTQESLSLSP
light 1: DIVMTQSQKFMSTSVGDRVSVTCKASQNVGSNVAWYQQKPGQSPEGLISSASSRFSGVPDRFTGSGSGTDFTLTITNVQSEDLAEYFCQQYNSYPFTFGSGTELEIKRTVAAPSVFIFPPSDEQLKSGTASVVCLLNNFYPREAKVQWKVDNALQSGNSQESVTEQDSKDSTYSLSSTLTLSKADYEKHKVYACEVTHQGLSSPVTKSFNRGEC
heavy 2: QVQLVESGGGVVQPGGSLRLSCAASGFTFSNAWMHWVRQAPGKGLEWVAQIKDKSQNYATYVAESVKGRFTISRADSKNSIYLQMNSLKTEDTAVYYCRYVHYAAGYGVDIWGQGTTVTVSSASTKGPSVFPLAPSSKSTSGGTAALGCLVKDYFPEPVTVSWNSGALTSGVHTFPAVLQSSGLYSLSSVVTVPSSSLGTQTYICNVNHKPSNTKVDKKVEPKSCDKTHTCPPCPAPELRGGPKVFLFPPKPKDTLMISRTPEVTCVVVDVSHEDPEVKFNWYVDGVEVHNAKTKPREEQYASTYRVVSVLTVLHQDWLNGKEYKCKVSNKALPAPIEKTISKAKGQPREPQVYTLPPSRKEMTKNQVSLTCLVKGFYPSDIAVEWESNGQPENNYKTTPPYLDSDGSFFLYSKLTVDKSRWQQGNVFSCSVMHEALHNHYTQKSLSLSP
light 2: DIVMTQSPLSLPVTPGEPASISCRSSQPLVHSNRNTYLHWYQQKPGQAPRLLIYKVSNRFSGVPDRFSGSGSGTDFTLKISRVEAEDVGVYYCGQGTQVPYTFGQGTKLEIKRTVAAPSVFIFPPSDEQLKSGTASVVCLLNNFYPREAKVQWKVDNALQSGNSQESVTEQDSKDSTYSLSSTLTLSKADYEKHKVYACEVTHQGLSSPVTKSFNRGEC
notes: Made by Fab arm exchange of the bivalent anti-CLDN6 antibody CH03 with the bivalent anti-CD3 antibody CD3-1; human IgG1 constant region; One anti-CLDN6 arm and one anti-CD3 arm; also called CLDN6-TRAB; CLDN6-targeted T-cell redirecting bispecific antibody
B2: CH01/CD3 (bispecific antibody, human IgG1, kappa, N297A)
heavy 1: EVKLVESGGGLVKPGGSLKLSCAASGFTFNSYTMSWVRQTPAKRLEWVVTISSGGGRTYYPDSVKGRFTISRDNARNTLYLQMSSLRSEDTAMYYCIRGDYRYDGFAYWGQGTLVTVSTASTKGPSVFPLAPSSKSTSGGTAALGCLVKDYFPEPVTVSWNSGALTSGVHTFPAVLQSSGLYSLSSVVTVPSSSLGTQTYICNVNHKPSNTKVDKKVEPKSCDKTHTCPPCPAPELRGGPKVFLFPPKPKDTLMISRTPEVTCVVVDVSHEDPEVKFNWYVDGVEVHNAKTKPREEQYASTYRVVSVLTVLHQDWLNGKEYKCKVSNKALPAPIEKTISKAKGQPREPQVYTLPPSREEMTKNQVSLTCLVKGFYPSDIAVEWESNGQPENNYKTTPPYLDSDGSFFLYSKLTVDKSRWQQGNVFSCSVMHEALHNHYTQESLSLSP
light 1: DIQMTQSPASLSASVGETVTITCRASENIDSYLAWYQQKQGKSPQLLVYASTLLVDGVPSRFSGSRSGTQFSLKINSLQSEDVARYYCQHYYSIPYTFGSGTKLEIKRTVAAPSVFIFPPSDEQLKSGTASVVCLLNNFYPREAKVQWKVDNALQSGNSQESVTEQDSKDSTYSLSSTLTLSKADYEKHKVYACEVTHQGLSSPVTKSFNRGEC
heavy 2: B1 heavy 2
light 2: B1 light 2
notes: Made by Fab arm exchange of the bivalent anti-CLDN6 antibody CH01 with the bivalent anti-CD3 antibody CD3-1; human IgG1 constant region; One anti-CLDN6 arm and one anti-CD3 arm; also called CLDN6-TRAB; CLDN6-targeted T-cell redirecting bispecific antibody

Columns and labels:
human CLDN6 [1] = biological target: T1, human CLDN6 (human, UniProt P56747 1-220); experiment: FACS on Ba/F3 transfectant, antibody 20 micro g/ml, FITC anti-human IgG
T1 construct: 45 is entered here, 44 is equally possible; also called hCLDN6; human Claudin 6
T1 sequence: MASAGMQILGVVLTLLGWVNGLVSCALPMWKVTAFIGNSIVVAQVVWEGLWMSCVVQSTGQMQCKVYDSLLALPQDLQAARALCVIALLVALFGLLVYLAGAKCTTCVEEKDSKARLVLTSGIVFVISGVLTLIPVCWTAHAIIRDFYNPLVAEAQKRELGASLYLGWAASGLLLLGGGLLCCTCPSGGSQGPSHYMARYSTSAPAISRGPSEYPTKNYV
Experimental: (§1) To evaluate the binding activity and specificity of the generated CLDN6-TRABs against CLDN6 and other Claudin family antigens, FACS analysis was conducted as follows. Ba/F3 transfectants stably express a kind of protein selected from human CLDN3 (hCLDN3), human CLDN4 (hCLDN4), human CLDN6 (hCLDN6), human CLDN9 (hCLDN9), mouse CLDN3 (mCLDN3), mouse CLDN4 (mCLDN4) and mouse CLDN6 (mCLDN6), were generated using similar method described in WO2008/087978, and named BaF3_hCLDN3, BaF3_hCLDN4, BaF3_hCLDN6, BaF3_hCLDN9, BaF3 mCLDN3, BaF3 mCLDN4, BaF3 mCLDN6, respectively. Each of the CLDN6-TRABs (CH01/CD3, CH02/CD3, CH03/CD3, CH04/CD3) was incubated with the Ba/F3 transfectants at an antibody concentration of 20 micro g/ml in FACS buffer (0.5% BSA containing autoMACS Rinsing Solution, Miltenyl Biotec). Binding activities of each CLDN6-TRAB to the Claudin family proteins (hCLDN3, hCLDN4, hCLDN6, hCLDN9, mCLDN3, mCLDN4, mCLDN6) were examined by incubation of FITC-conjugated goat anti human IgG (BeckmanCoulter), represented as Geo-mean value. Sample processing was conducted on FACSVerse (BD).
(§2) Claudin family proteins have two extracellular domains. The sequence of the first extracellular domain in human CLDN9 is almost the same compared with the first extracellular domain of human CLDN6. For the second extracellular domain of human CLDN9, there are only two amino acids different from the ones at their corresponding positions in human CLDN6 (FIG. 2). The glutamine at position 156 of human Claudin 6 (position 156 in the sequence shown in SEQ ID NO: 44 or 45) was substituted to leucine to make a human CLDN6 mutant comprising the same amino acid as human Claudin 9 at position 156. This human CLDN6 mutant was named as hCLDN6(Q156L) (SEQ ID NO: 53). Ba/F3 transfectant stably express hCLDN6(Q156L) was generated using similar method described in WO2008/087978. The established Ba/F3 transfectant was named BaF3_hCLDN6(Q156L). Binding activity of the generated CLDN6-TRABs against BaF3_hCLDN6(Q156L) was measured using the above mentioned FACS method and the results are shown in FIG. 1 and Table 3.

hCLDN6(Q156L) = biological target: T2, hCLDN6(Q156L) (human, UniProt P56747 1-220); experiment: as above
T2 construct: Stably expressed on Ba/F3 cells; also called human CLDN6 mutant; BaF3_hCLDN6(Q156L)
T2 chain: T1 sequence with Q156L
Experimental: as §1, §2

mouse CLDN6 = biological target: T3, mouse CLDN6 (mouse, UniProt Q9Z262 1-219); experiment: as above
T3 construct: whole, on cells; also called mCLDN6; BaF3_mCLDN6
T3 sequence (looked up): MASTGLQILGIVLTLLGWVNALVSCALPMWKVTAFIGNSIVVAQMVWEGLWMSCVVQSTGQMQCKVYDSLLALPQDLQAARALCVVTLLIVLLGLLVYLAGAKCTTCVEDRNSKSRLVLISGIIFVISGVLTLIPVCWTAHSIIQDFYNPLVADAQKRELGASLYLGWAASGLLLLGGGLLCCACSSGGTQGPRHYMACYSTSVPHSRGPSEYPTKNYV
Experimental: as §1, §2

human CLDN3 = biological target: T4, human CLDN3 (human, UniProt O15551 1-220); experiment: as above
T4 construct: whole, on cells; also called hCLDN3; BaF3_hCLDN3
T4 sequence (looked up): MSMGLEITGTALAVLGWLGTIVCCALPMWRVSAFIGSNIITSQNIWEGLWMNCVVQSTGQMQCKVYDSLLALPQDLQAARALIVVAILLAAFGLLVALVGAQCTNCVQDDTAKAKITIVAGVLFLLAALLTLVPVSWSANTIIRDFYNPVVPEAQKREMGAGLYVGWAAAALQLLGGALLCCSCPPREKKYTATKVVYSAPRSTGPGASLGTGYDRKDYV
Experimental: as §1, §2

human CLDN4 = biological target: T5, human CLDN4 (human, UniProt O14493 1-209); experiment: as above
T5 construct: whole, on cells; also called hCLDN4; BaF3_hCLDN4
T5 sequence (looked up): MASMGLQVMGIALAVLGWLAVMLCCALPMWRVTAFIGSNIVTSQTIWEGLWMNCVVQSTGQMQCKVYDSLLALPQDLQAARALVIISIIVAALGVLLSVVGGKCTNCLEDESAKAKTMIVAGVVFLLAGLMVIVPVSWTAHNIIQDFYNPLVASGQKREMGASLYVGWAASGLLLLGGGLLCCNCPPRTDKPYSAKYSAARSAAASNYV
Experimental: as §1, §2

mouse CLDN3 = biological target: T6, mouse CLDN3 (mouse, UniProt Q9Z0G9 1-219); experiment: as above
T6 construct: whole, on cells; also called mCLDN3; BaF3_mCLDN3
T6 sequence (looked up): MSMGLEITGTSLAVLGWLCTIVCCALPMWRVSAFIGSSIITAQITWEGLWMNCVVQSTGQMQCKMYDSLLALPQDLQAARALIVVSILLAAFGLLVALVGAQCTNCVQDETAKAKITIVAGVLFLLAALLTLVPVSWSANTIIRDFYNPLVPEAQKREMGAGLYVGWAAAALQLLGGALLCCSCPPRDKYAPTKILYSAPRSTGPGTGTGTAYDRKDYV
Experimental: as §1, §2

human CLDN9 = biological target: T7, human CLDN9 (human, UniProt O95484 1-217); experiment: as above
T7 construct: whole, on cells; also called hCLDN9; BaF3_hCLDN9
T7 sequence (looked up): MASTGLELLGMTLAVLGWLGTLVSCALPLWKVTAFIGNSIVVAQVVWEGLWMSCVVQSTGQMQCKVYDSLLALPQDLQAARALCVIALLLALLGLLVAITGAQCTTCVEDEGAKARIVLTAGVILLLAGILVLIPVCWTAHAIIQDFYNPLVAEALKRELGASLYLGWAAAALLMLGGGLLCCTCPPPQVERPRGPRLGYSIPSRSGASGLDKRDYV
Experimental: as §1, §2

mouse CLDN4 = biological target: T8, mouse CLDN4 (mouse, UniProt O35054 1-210); experiment: as above
T8 construct: whole, on cells; also called mCLDN4; BaF3_mCLDN4
T8 sequence (looked up): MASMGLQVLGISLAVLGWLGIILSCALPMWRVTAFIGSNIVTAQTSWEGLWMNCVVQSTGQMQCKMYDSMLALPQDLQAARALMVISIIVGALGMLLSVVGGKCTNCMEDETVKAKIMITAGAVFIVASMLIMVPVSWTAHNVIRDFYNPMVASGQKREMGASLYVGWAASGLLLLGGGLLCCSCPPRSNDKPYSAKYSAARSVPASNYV
Experimental: as §1, §2

human CLDN6 [2] = biological target: T1, human CLDN6; experiment: cell-based or functional assay
human CLDN6 [3] = biological target: T1, human CLDN6; experiment: cell-based or functional assay; remark: listed apart in the source
human CLDN6 [4] = biological target: T1, human CLDN6; experiment: cell-based or functional assay; remark: listed apart in the source

Binder	Geo-mean value of FACS (human CLDN6 [1])	Geo-mean value of FACS (hCLDN6(Q156L))	Geo-mean value of FACS (mouse CLDN6)	Geo-mean value of FACS (human CLDN3)	Geo-mean value of FACS (human CLDN4)	Geo-mean value of FACS (mouse CLDN3)	Geo-mean value of FACS (human CLDN9)	Geo-mean value of FACS (mouse CLDN4)	EC50 (read off the curve), Jurkat/NFAT-RE luciferase reporter, target cells ABC-1 (human CLDN6 [2]) [nM]	EC50 (read off the curve), Jurkat/NFAT-RE luciferase reporter, target cells PA-1 (human CLDN6 [3]) [nM]	EC50 (read off the curve), Jurkat/NFAT-RE luciferase reporter, target cells HuH-7 (human CLDN6 [4]) [nM]
B1	7700	98	559	37	35	26	184	22	~0.04	~0.02	
B2	4480	114		37	51	26		31			~0.09
